Source: publication PMC3773174

Target: Sso1pHT (yeast t-SNARE Sso1p without the Habc domain), labelled with Cy5 (yeast)
Assay: FRET or BRET

Snc2p (yeast v-SNARE), labelled with Cy3 (from UniProt P33328 1-115) (natural protein)
FRET efficiency of the single protein-protein complex (H): 0.96
